This is an account of results in paper PMC11543927, “Subtleties in Clathrin heavy chain binding boxes provide selectivity among adaptor proteins of budding yeast” (Nature Communications, 2024).

Positions count from the first letter of the chain named.

What all share (assay): nanoDSF thermal shift; ScChc-NTD mutants 10 µM with Ent1 or Ent2 peptide, thermal ramp up to 80 °C; apparent KD from the Tm shift model
Holding throughout (conditions): both partners purified
Background: In DSF a fluorescence change marks the thermal transition of the protein.

Assay [1] deals with T1, ScChc-NTD W-box mutant (F26A, Q155A) (Saccharomyces cerevisiae, UniProt P22137 1-369, F26A | Q155A).
T1 construct: Clathrin heavy chain N-terminal domain, Saccharomyces cerevisiae, residues 1-369, W-box mutant; also called W mutant
T1 sequence (looked up): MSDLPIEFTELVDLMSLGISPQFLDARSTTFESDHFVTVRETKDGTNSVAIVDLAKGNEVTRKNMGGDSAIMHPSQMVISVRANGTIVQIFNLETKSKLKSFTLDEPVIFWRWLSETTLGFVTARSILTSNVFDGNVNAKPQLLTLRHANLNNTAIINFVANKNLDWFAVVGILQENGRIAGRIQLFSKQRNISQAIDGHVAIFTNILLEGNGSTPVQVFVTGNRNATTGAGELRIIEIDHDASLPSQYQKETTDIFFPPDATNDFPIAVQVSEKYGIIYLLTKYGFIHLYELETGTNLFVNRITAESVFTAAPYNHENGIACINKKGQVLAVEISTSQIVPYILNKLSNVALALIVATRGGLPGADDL

For assay [2], the target named is T2, ScChc-NTD Clathrin and W box mutant (Cla+W) (Saccharomyces cerevisiae, UniProt P22137 1-369, F26A | K63E | I87D | Q89A | K98E | Q155A).
T2 construct: Clathrin heavy chain N-terminal domain, Saccharomyces cerevisiae, residues 1-369, Clathrin and W box mutant
T2 sequence (looked up): T1 sequence (looked up) with K63E, I87D, Q89A, K98E

For assay [3], the target named is T3, ScChc-NTD Clathrin, Arrestin and W box mutant (Cla+Arr+W) (Saccharomyces cerevisiae, UniProt P22137 1-369, F26A | K63E | I87D | Q89A | K98E | Q155A | Q195A | I197T | K251E).
T3 construct: Clathrin heavy chain N-terminal domain, Saccharomyces cerevisiae, residues 1-369, Clathrin, Arrestin and W box mutant; also called triple mutant
T3 sequence (looked up): T1 sequence (looked up) with K63E, I87D, Q89A, K98E, Q195A, I197T, K251E

Assay [4] has as its target T4, ScChc-NTD Clathrin box mutant (K63E, I87D, Q89A, K98E) (Saccharomyces cerevisiae, UniProt P22137 1-369, K63E | I87D | Q89A | K98E).
T4 construct: Clathrin heavy chain N-terminal domain, Saccharomyces cerevisiae, residues 1-369, Clathrin box mutant; also called Cla mutant
T4 sequence (looked up): T1 sequence (looked up) with A26F, K63E, I87D, Q89A, K98E, A155Q

For assay [5], the target named is T5, ScChc-NTD Arrestin box mutant (Q195A, I197T, K251E) (Saccharomyces cerevisiae, UniProt P22137 1-369, Q195A | I197T | K251E).
T5 construct: Clathrin heavy chain N-terminal domain, Saccharomyces cerevisiae, residues 1-369, Arrestin box mutant; also called Arr mutant
T5 sequence (looked up): T1 sequence (looked up) with A26F, A155Q, Q195A, I197T, K251E

B1: Ent2 CBM peptide (GVSLIDL) (peptide)
peptide: GVSLIDL
notes: also called Ent2 peptide; source: synthetic peptide, bought: NovoProLabs
Consider B1, for which, in assay [1], the binding result was “binds”. Further, the “fold decrease in binding against WT NTD” value in assay [2] is approximately 9 fold. The Kd in assay [3] is approximately 1.04 mM; in assay [4], approximately 509 µM; in assay [5] it was approximately 216 µM.

B2: Ent1 CBM peptide (GYTLIDL) (peptide)
peptide: GYTLIDL
notes: also called Ent1 peptide; source: synthetic peptide, bought: NovoProLabs
In the case of B2, the binding result in assay [1] is listed as “binds”. Further, in assay [2], the “fold decrease in binding against WT NTD” value was approximately 9 fold. Also, the Kd was approximately 3.45 mM in assay [3], approximately 968 µM in assay [4] and approximately 166 µM in assay [5].
